According to the supplement of paper PMC9112550, “Optimization of the antimicrobial peptide Bac7 by deep mutational scanning” (BMC Biology, 2022):

Test system: Escherichia coli TOP10
Experiment: shrunken log2 fold change of peptide-encoding DNA abundance (4.5 h post-induction vs induction); higher = less antimicrobial activity (less host growth inhibition)
Conditions: time post-induction: 4.5 h; library: site-saturation at positions 5, 18, 19, 20
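Also: peptides expressed intracellularly from a pBAD plasmid library in pooled LB shake-flask culture, induced with 0.3% L-arabinose, DNA abundance read by NGS, three biological replicates, DESeq2 with apeglm shrinkage.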

| Sequence | shrunken log2 fold change |
| --- | --- |
| RRIRLRPPRLPRPRPRPEIEPRP | -0.0912 |
| RRIRHRPPRLPRPRPRPKFAPRP | 0.00298 |
| RRIRIRPPRLPRPRPRPIYGPRP | -0.000842 |
| RRIRYRPPRLPRPRPRPLSEPRP | -0.215 |
| RRIRTRPPRLPRPRPRPQYQPRP | -0.502 |
| RRIRPRPPRLPRPRPRPERWPRP | 0.56 |
| RRIRSRPPRLPRPRPRPWDPPRP | 0.0317 |
| RRIRKRPPRLPRPRPRPTQHPRP | 0.748 |
| RRIRGRPPRLPRPRPRPFVLPRP | -0.000308 |
| RRIRVRPPRLPRPRPRPKIWPRP | 0.0958 |
| RRIRHRPPRLPRPRPRPTVHPRP | -0.755 |
| RRIRARPPRLPRPRPRPHIHPRP | -0.45 |
| RRIRNRPPRLPRPRPRPFFTPRP | -0.147 |
| RRIRERPPRLPRPRPRPPTTPRP | 0.322 |
| RRIRNRPPRLPRPRPRPCFRPRP | -0.241 |
| RRIRTRPPRLPRPRPRPLWWPRP | 0.546 |
| RRIRDRPPRLPRPRPRPYWDPRP | -0.766 |
| RRIRVRPPRLPRPRPRPVASPRP | 0.187 |
| RRIRYRPPRLPRPRPRPCAAPRP | -0.642 |
| RRIRRRPPRLPRPRPRPLFMPRP | 0.0797 |
| RRIRNRPPRLPRPRPRPDIEPRP | 0.0309 |
| RRIRMRPPRLPRPRPRPNSCPRP | -0.0381 |
| RRIRTRPPRLPRPRPRPYMHPRP | -0.685 |
| RRIRQRPPRLPRPRPRPPEDPRP | 0.0255 |
| RRIRFRPPRLPRPRPRPGAGPRP | 0.289 |

| Sequence | shrunken log2 fold change |
| --- | --- |
| RRIRWRPPRLPRPRPRPEIPPRP | -0.142 |
| RRIRARPPRLPRPRPRPLWIPRP | -0.0129 |
| RRIRSRPPRLPRPRPRPFATPRP | 0.461 |
| RRIRNRPPRLPRPRPRPNVNPRP | -0.795 |
| RRIRCRPPRLPRPRPRPPCWPRP | 0.264 |
| RRIRLRPPRLPRPRPRPPRSPRP | 0.422 |
| RRIRFRPPRLPRPRPRPQEQPRP | -0.0102 |
| RRIRPRPPRLPRPRPRPNWNPRP | -0.184 |
| RRIRNRPPRLPRPRPRPKAVPRP | 0.301 |
| RRIRMRPPRLPRPRPRPHFCPRP | -0.0487 |
| RRIRMRPPRLPRPRPRPNKKPRP | -0.0238 |
| RRIRRRPPRLPRPRPRPWTWPRP | -0.008 |
| RRIRWRPPRLPRPRPRPALCPRP | 0.331 |
| RRIRYRPPRLPRPRPRPSAGPRP | -0.165 |
| RRIRRRPPRLPRPRPRPKEAPRP | 0.0205 |
| RRIRVRPPRLPRPRPRPYGYPRP | -1.16 |
| RRIRARPPRLPRPRPRPPVCPRP | 0.276 |
| RRIRCRPPRLPRPRPRPRVFPRP | 0.0449 |
| RRIRWRPPRLPRPRPRPMRNPRP | 0.315 |
| RRIRYRPPRLPRPRPRPTNCPRP | -1.27 |
| RRIRLRPPRLPRPRPRPLWFPRP | -0.543 |
| RRIRFRPPRLPRPRPRPGLQPRP | -0.18 |
| RRIRARPPRLPRPRPRPIRSPRP | -0.129 |
| RRIRLRPPRLPRPRPRPRMWPRP | 0.458 |
| RRIRIRPPRLPRPRPRPEHNPRP | -0.505 |

| Sequence | shrunken log2 fold change |
| --- | --- |
| RRIRQRPPRLPRPRPRPKDDPRP | -0.0913 |
| RRIRHRPPRLPRPRPRPMSIPRP | -0.0719 |
| RRIRRRPPRLPRPRPRPASLPRP | 0.338 |
| RRIRGRPPRLPRPRPRPWFVPRP | -0.314 |
| RRIRCRPPRLPRPRPRPDSTPRP | -0.235 |
| RRIRERPPRLPRPRPRPISTPRP | -0.346 |
| RRIRGRPPRLPRPRPRPNNNPRP | -0.0957 |
| RRIRWRPPRLPRPRPRPGLVPRP | 0.449 |
| RRIRHRPPRLPRPRPRPRHHPRP | -0.0639 |
| RRIRMRPPRLPRPRPRPCSRPRP | 0.296 |
| RRIRSRPPRLPRPRPRPHDFPRP | -0.0847 |
| RRIRYRPPRLPRPRPRPHPLPRP | -0.719 |
| RRIRSRPPRLPRPRPRPTPEPRP | 0.866 |
| RRIRQRPPRLPRPRPRPYWVPRP | -0.264 |
| RRIRYRPPRLPRPRPRPPRSPRP | -0.148 |
| RRIRHRPPRLPRPRPRPMTQPRP | -0.24 |
| RRIRCRPPRLPRPRPRPDICPRP | -0.22 |
| RRIRWRPPRLPRPRPRPLEAPRP | 0.668 |
| RRIRCRPPRLPRPRPRPAFDPRP | 0.253 |
| RRIRCRPPRLPRPRPRPMYAPRP | 0.0401 |
| RRIRTRPPRLPRPRPRPCRWPRP | -0.00822 |
| RRIRTRPPRLPRPRPRPTFQPRP | 0.0412 |
| RRIRHRPPRLPRPRPRPAKPPRP | 0.533 |
| RRIRTRPPRLPRPRPRPEQTPRP | 0.303 |
| RRIRCRPPRLPRPRPRPARWPRP | 0.56 |
